Reference: the DeepSol protein solubility set

Test: soluble on expression in E. coli; label from the status in PepcDB or PDB records

Row | Sequence | soluble on expression in E. coli
1 | VELKVKRFPISRYQANNEASDDLIKGAFVGLTNVTFSFAGNIVRVVDTGMDILYNLQPIDEFANSITNVSKTVYKTLKKN | not soluble
2 | VFQSILDEIDVGLHVVDEHGNTIVYNNKMMQIEDMEKHDVLNKNLMDVFMFSKQQDSTLVQALQEGKTIKNVKQSYFNNKGQEITTINHTYPIVQDGKIRGAVEIAKDVT | not soluble
3 | VHNAGRMVVMKSRPLGEAEAVLDPSSATVDDFSISRGGDTIAYVKMGPTSPPDIYIYRDDNEYRLTDHNAWFAESRSLAEPVRLQVQSPLGGSIDAWILLPPDAGECSGCLPWILYIHGGPKTSYGYAFIHEFQMLASQGFAVIYSNPRGSDGYSEEFADLRGRYGVDDYSELMKVVDEALSDFPQLDPQRGGVTGGSYGGYMTNVIVTKTRRFKAAVTQRSCSNWISFYGESDIGWYFAPELISAQEPWRDLEKYVDFSPLFSVENIETPLLIIHSTEDFRCPLSGAIQLFTALKLKGVETRLLVFPGENHNLSRSGTPKRRVARLRAIASWFKEHLG | not soluble
4 | VKIFERFRKACDEFFKKKGEFFKLLKEGMNANLEKKKALCEKAESLKDSTEWKETAEILTKLQKEWKTIGPVSKKYS | not soluble
5 | VKNSNGVREKDGKPFRVELYYAGSDTVRRDIAIEFSSQMKKLGLDFPTIASTWDEIETKLGDVSVVLGGGSAPYDLTIMAYEYLHTRTPSTGKWANPGDYGSEKLNALLDQARSEVDVEKRNNLWRKIQAEYVNNPSALNLVNIDHVYVGKKNDWKKPELLLEPHIHGVTWGPWWRISEWTK | not soluble
6 | VKSYKSGASAIDVIVTTPDIARINAIAAMKKGSALTTEETMQVPAAGWPVMIFSHGITSYKETVLAISGTLASQGIATISIDHPYHGARGIDFNADGVYEISATSSLSDSDPAYVNANVTSYMNLASLLTARDNVRQSEVDLLALRLSLNSVNLAGQLDATKVSFLGHSLGAITGIPVMALANSGI | not soluble
7 | VLAGIDALESSGFAAVAGKRIALVTNRSGVDRLGRRTIDLLAHAPGARLVAIFAPEHGLGTDVDAPFGDAIDADTNVVVHSLYGSRRRIAPEALSNVDVLVFDIQDAGVRFFTYLATLGYVLEAAAAAHVPVVVLDRPNPLGGDVVGGPVSDADIGSFTNYYPLPLAPGMTIGELAKLFDDRLRIGADLVVVPMENYRRWMRYGDTGLGGLPPSPNLRDAAALSLYPDIGLVEGADVSVGRGTATPFGVLGAPWIDGRALADDLRAMHLSATFTPARFVPTEGPYRGALCEGVRIERLPGPVRPGRIGLAVALALHRRYPDRFRIDAIRASVGSRAVADMLADGRPLDEIEQVVDTQNAAFSRERAAYLLY | not soluble
8 | VLGDKEWVYLPGLKESFKARIDTGATTSSISAVDIVPFERGGQDWVKFRIEHDNIRSEELSLPVERWVRIRQSSAEEAQRRAVVVAWIQIGDLKEQTEFTLTDRTHLTYPLLLGRSFFKDVAVVDVSRHYIQPKHPSPKK | not soluble
9 | VLKLDRQTQIWNRASLESGGATPAAGDIALASLLLAHGLAMNGGVAHAIESLSQAEIAAAIDGFNYFGLTDASHVFEQRPDDSEDVEERLNMMYRTAVPNDRVLAHAFRVKLVSTPSAFAPIDHGAHV | not soluble
10 | VLLHSKEVAYIAGLMAEELGLDAKLARRAGLLHDIGKAISHELGGSHTDIGVELARKYGEPDAVINAIRAHHEEEPVRYPEVALVCAADALSAA | not soluble
11 | VLSAIGIVPSAPVLVPELAGAAAAELADLGAAVIAAASLLPKSWIAVGTGRADDVVRPTDVGTFAGFGADVRVGLAPQDGDGVAVPVELPLCALLTAWVRGQARPEARAQVHVYASDHGSDAAVARGRQLRADIDREPDPIGVLVVADGLNTLTPRAPGGYDPDGAGMQRALDDALASGDLAVLTRLPAQVLGRVAFQVLAGLAEPGPRSAKEFYRGAPHGVGYFAGVWQP | not soluble
12 | VQERIKACFTESIQTQIAAAEALPDAISRAAMTLVQSLLNGNKILCCGNGTSAANAQHFAASMINRFETERPSLPAIALNTDNVVLTAIANDRLHDEVYAKQVRALGHAGDVLLAISTRGNSRDIVKAVEAAVTRDMTIVALTGYDGGELAGLLGPQDVEIRIPSHRSARIQEMHMLTVNCLCDLIDNTLFPHQDD | soluble
13 | VQLLESGPGLVKPAQTLSLSCAVSGGSIRSGGYYWSWIRQHPGKGLEWIGYIYHSGNTYYNPSLKSRIAMSVDTSENKFSLRLNSVTAADTAVYYCARLDGYTLDIWGQGTLVTVSSSTKGPSVFPLAPSSKSTSGGTAALGCLVKDYFPEPVTVSWNSGALTSGVHTFPAVLQSSGLYSLSSVVTVPSSSLGTQTYICNVNHKPSNTKVDKRVEP | soluble
14 | VREILSIHVGQCGNQIADSFWRLALREHGLTEAGTLKEGSNAAANSNMEVFFHKVRDGKYVPRAVLVDLEPGVIARIEGGDMSQLFDESSIVRKIPGAANNWARGYNVEGEKVIDQIMNVIDSAVEKTKGLQGFLMTHSIGGGSGSGLGSLILERLRQAYPKKRIFTFSVVPSPLISDSAVEPYNAILTLQRILDNADGAVLLDNEALFRIAKAKLNRSPNYMDLNNIIALIVSSVTASLRFPGKLNTDLSEFVTNLVPFPGNHFLTASFAPMRGAGQEGQVRTNFPDLARETFAQDNFTAAIDWQQGVYLAASALFRGDVKAKDVDENMATIRKSLNYASYMPASGGLKLGYAETAPEGFASSGLALVNHTGIAAVFERLIAQFDIMFDNHAYTHWYENAGVSRDMMAKARNQIATLAQSYRDAS | soluble
15 | VRGLLRVVGVRIEPGDHMLAIRDEIAGAIALGHSQGAVEKEDRDRLLGALDLSERTVEEIMRHRSQIEMIDADKPSAEVIAQVLASPHTRIPLYRGDHENILGIIHAKDLLREVSRLMRTGSTGALDELDILAVAMKPYFVPETTPLDEQMRQFLKRRTHFALVVDEYGALKGLITLEDIIEEIVGEINDEFDIAQEMTLKRADTGDYLVDGAMTI | not soluble
16 | VRMVGLTIETRPDWAFERQIDRMLAFGTTRVELGVQTIFNFIHERVGRGHGVEEIIKATQLLRDAGLKINYHIMPGLPGSNFERDLYVFKTIFEDPRFRPDMLKIYPTLVTRDAPLYAWYKAGLYKPYTTEEAVELLVEAYKIFPKWVRVMRIQRDIPSHLIVAGVKHSNLGQLVFEELVRRGIRPREI | not soluble
17 | VSAADTAEDLPEQFRIRRDKRARLLAQGRDPYPVAVPRTHTLAEVRAAHPDLPIDTATEDIVGVAGRVIFARNSGKLCFATLQDGDGTQLQVMISLDKVGQAALDAWKADVDLGDIVYVHGAVISSRRGELSVLADCWRIAAKSLRPLPVAHKEMSEESRVRQRYVDLIVRPEARAVARLRIAVVRAIRTALQRRGFLEVETPVLQTLAGGAAARPFATHSNALDIDLYLRIAPELFLKRCIVGGFDKVFELNRVFRNEGADSTHSPEFSMLETYQTYGTYDDSAVVTRELIQEVADEAIGTRQLPLPDGSVYDIDGEWATIQMYPSLSVALGEEITPQTTVDRLRGIADSLGLEKDPAIHDNRGFGHGKLIEELWERTVGKSLSAPTFVKDFPVQTTPLTRQHRSIPGVTEKWDLYLRGIELATGYSELSDPVVQRERFADQARAAAAGDDEAMVLDEDFLAALEYGMPPCTGTGMGIDRLLMSLTGLSIRETVLFPIVRPHSN | not soluble
18 | VSFPSSPPALPAIVARFAVGRPVRAVWVNELGGVTFRVDSGMGAGCEFIKVARRGTADFANEARRLRWAAPYLAVPRVLGVGVDGDWAWLHTDALPGLSAVHPRWRASPQVAVPALGAGLRTLHDSLPVHSCPFDWSTASRLAKLAPARRAELGDSPPVDRLVVCHGDACSPNTILDDTGRCCGHVDFGNLGVADRWADLAVATLSLQWNFPDYPGQVRDDEFFAAYGVAPDPARIDYYRRLWQAEDDSSR | soluble
19 | VSIDVPERADLEQVRGRWRNAVAGVLSKSNRTDSAQLGDHPERLLDTQTADGFAIRALYTAFDELPEPPLPGQWPFVRGGDPLRDVHSGWKVAEAFPANGATADTNAAVLAALGEGVSALLIRVGESGVAPDRLTALLSGVYLNLAPVILDAGADYRPACDVMLALVAQLDPGQRDTLSIDLGADPLTASLRDRPAPPIEEVVAVASRAAGERGLRAITVDGPAFHNLGATAATELAATVAAAVAYLRVLTESGLVVSDALRQISFRLAADDDQFMTLAKMRALRQLWARVAEVVGDPGGGAAVVHAETSLPMMTQRDPWVNMLRCTLAAFGAGVGGADTVLVHPFDVAIPGGFPGTAAGFARRIARNTQLLLLEESHVGRVLDPAGGSWFVEELTDRLARRAWQRFQAIEARGGFVEAHDFLAGQIAECAARRADDIAHRRLAITGVNEYPNLGEPALPPGDPTSPVRRYAAGFEALRDRSDHHLARTGARPRVLLLPLGPLAEHNIRTTFATNLLASGGIEAIDPGTVDAGTVGNAVADAGSPSVAVICGTDARYRDEVADIVQAARAAGVSRVYLAGPEKALGDAAHRPDEFLTAKINVVQALSNLLTRLGA | not soluble
20 | VTDASVHPDELDPEYHHHGGFPEYGPASPGAGFGQFVATMRRLQDLAVAADPGDAVWDEAAERAAALVELLSPFEADEGKAPAGRTPGLPGMGSLLLPPWTVTRYGTDGVEMRGSFSRFHVGGNSAVHGGVLPLLFDHMFGMISHAAGRPISRTAFLHVDYRRITPIDVPLIVRGRVTNTEGRKAFVCAELFDSDETLLAEGNGLMVRLLPGQP | soluble
21 | VTDILREIGMIARALDSISNIEFKELSLTRGQYLYLVRVCENPGIIQEKIAELIKVDRTTAARAIKRLEEQGFIYRQEDASNKKIKRIYATEKGKNVYPIIVRENQHSNQVALQGLSEVEISQLADYLVRMRKNVSEDWEFVKKGNTRNY | soluble
22 | VTGAIDPNLFTDAVLQVAAAAGRDETLPMLTGIHMEIDGENVTLTATDRFRLALRRFTWSPANPEAKAKLLIPAKNLSDNARSLDSGSTEPVEIAVGTGENIGAEGLFGIHIDNRQTTTRMLDADFPNVSPLL | not soluble
23 | VVIRVLFRPVSLIPVNNSSTPQSQGPISRRLALTALGFGVLAPNVLVACAGKVTKLAEKRPPPAPRLTFRPADSAADVVPIAPISVEVGDGWFQRVALTNSAGKVVAGAYSRDRTIYTITEPLGYDTTYTWSGSAVGHDGKAVPVAGKFTTVAPVKTINAGFQLADGQTVGIAAPVIIQFDSPISDKAAVERALTVTTDPPVEGGWAWLPDEAQGARVHWRPREYYPAGTTVDVDAKLYGLPFGDGAYGAQDMSLHFQIGRRQVVKAEVSSHRIQVVTDAGVIMDFPCSYGEADLARNVTRNGIHVVTEKYSDFYMSNPAAGYSHIHERWAVRISNNGEFIHANPMSAGAQGNSNVTNGCINLSTENAEQYYRSAVYGDPVEVTGSSIQLSYADGDIWDWAVDWDTWVSMSALPPPAAKPAATQIPVTAPVTPSDAPTPSGTPTTTNGPGG | not soluble
24 | VVTLGYWDIRGLAHAIRLLLEYTETPYQERRYKAGPAPDFDPSDWTNEKEKLGLDFPNLPYLIDGDVKLTQSNAILRYIARKHNMCGETEVEKQRVDVLENHLMDLRMAFARLCYSPDFEKLKPAYLELLPGKLRQLSRFLGSRSWFVGDKLTFVDFLAYDVLDQQRMFVPDCPELQGNLSQFLQRFEALEKISAYMRSGRFMKAPIFWYTALWNNKKE | soluble
25 | VVVGAERTELLLPLLRDKRVALVANATSVVGTEREHLLDNLLRQGVNVVKILGPEHGFRGDADAGATVKDERDVRTGIPIVSLYGKNKKPTPRMLADVDVLLFDMQDVGTRFFTYISTLHYVMEACAEEQKKLIVTDRPNPNDYVDGPILQDDCRSFVGVDPLPILHGLTIGELANMINGEGWLGKKEMKCDLTVVPMSGWKHGQEYALPVKPSPNLPTANAIAWYPSLCLFEATIMSVGRGTDFPFEVLGYPKKVFGSFVFVPRPIRGMDSNPLYKGRHCYGVDLRGEKAPRGLSLQLLIRYYQTARREGIKFVNRKQMFNLLAGTKELAQQIEKGRTEEQIRASWQSDLDKYHKLRKKYLLYPTPTE | soluble
